According to patent US20240409906, “INTEGRASES, LANDING PAD ARCHITECTURES, AND ENGINEERED CELLS COMPRISING THE SAME” (Asimov Inc., published 2024):

What was measured:
Details in all cases: tags: C-terminal GS linker-SV40 NLS
[1] = target: T1, Int8 (Staphylococcus haemolyticus JCSC1435); experiment: cell_activity; attB x attP EGFP inversion reporter, HEK293FT
T1 chain: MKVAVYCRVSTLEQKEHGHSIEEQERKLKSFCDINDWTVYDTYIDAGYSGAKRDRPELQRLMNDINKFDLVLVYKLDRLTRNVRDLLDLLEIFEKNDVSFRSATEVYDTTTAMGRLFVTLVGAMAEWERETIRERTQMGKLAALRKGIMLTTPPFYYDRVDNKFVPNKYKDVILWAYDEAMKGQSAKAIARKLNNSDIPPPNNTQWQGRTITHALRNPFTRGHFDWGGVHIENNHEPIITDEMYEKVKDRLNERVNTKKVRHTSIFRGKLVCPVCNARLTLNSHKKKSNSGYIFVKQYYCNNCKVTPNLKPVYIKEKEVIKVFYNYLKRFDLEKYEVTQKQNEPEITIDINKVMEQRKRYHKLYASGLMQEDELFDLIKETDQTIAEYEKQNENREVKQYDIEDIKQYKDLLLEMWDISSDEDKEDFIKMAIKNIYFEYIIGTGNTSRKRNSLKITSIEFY

[2] = target: T2, Int9 (Staphylococcus aureus str. Newman); experiment: cell_activity
T2 chain: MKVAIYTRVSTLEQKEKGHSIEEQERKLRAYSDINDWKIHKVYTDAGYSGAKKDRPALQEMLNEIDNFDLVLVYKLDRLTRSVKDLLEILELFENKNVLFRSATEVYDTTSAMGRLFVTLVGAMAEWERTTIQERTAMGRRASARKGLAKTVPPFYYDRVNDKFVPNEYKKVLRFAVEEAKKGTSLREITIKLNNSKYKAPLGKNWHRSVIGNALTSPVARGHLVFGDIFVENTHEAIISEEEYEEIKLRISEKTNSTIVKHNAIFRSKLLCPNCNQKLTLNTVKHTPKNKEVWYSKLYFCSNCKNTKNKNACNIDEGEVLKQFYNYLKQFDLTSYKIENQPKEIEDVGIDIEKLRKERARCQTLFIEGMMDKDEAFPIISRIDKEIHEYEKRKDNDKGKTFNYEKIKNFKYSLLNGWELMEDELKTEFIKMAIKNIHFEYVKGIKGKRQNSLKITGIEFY

[3] = target: T3, Int2 (Streptomyces scabiei 87.22); experiment: cell_activity; attB x attP EGFP inversion reporter, HEK293FT
T3 chain: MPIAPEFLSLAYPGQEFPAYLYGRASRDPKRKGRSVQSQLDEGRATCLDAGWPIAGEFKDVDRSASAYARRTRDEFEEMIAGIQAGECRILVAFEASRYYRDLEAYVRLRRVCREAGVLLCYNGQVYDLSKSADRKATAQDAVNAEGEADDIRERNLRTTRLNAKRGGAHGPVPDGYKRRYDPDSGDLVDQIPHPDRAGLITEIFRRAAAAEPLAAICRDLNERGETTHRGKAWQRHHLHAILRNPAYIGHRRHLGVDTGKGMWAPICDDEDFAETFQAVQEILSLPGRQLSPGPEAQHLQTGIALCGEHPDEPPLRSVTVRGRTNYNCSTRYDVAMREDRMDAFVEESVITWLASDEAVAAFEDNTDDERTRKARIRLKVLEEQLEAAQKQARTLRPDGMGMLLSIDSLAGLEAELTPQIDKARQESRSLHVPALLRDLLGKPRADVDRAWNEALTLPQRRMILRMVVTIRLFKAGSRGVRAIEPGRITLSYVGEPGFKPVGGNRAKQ

[4] = target: T4, Int12 (Staphylococcus lugdunensis N920143); experiment: as above
T4 chain: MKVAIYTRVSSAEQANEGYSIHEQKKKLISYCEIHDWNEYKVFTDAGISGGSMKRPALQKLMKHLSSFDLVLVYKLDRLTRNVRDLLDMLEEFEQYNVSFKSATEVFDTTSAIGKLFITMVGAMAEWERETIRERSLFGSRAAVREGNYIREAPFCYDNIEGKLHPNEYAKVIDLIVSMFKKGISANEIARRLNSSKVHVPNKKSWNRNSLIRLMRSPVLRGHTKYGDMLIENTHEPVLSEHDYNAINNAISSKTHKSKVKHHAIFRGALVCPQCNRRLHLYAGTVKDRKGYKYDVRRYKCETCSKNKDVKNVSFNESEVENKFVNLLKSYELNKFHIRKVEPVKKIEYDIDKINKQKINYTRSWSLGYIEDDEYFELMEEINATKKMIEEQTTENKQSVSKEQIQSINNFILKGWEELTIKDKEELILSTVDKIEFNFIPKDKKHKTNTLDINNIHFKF

[5] = target: T5, Int3 (Streptococcus pyogenes M1 GAS (phage …)); experiment: cell_activity
T5 chain: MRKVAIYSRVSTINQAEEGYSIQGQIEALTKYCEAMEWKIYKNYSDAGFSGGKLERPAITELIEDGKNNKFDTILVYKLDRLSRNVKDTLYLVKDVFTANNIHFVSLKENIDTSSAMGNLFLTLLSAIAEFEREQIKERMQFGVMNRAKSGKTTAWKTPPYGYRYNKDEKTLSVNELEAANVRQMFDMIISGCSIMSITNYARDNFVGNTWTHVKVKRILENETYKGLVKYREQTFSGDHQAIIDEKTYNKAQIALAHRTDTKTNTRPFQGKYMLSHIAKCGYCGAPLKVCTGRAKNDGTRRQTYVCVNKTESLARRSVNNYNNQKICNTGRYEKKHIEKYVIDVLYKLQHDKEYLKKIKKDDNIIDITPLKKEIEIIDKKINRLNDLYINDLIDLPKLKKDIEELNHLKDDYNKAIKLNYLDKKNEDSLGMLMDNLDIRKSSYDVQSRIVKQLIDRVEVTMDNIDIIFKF

[6] = target: T6, Int10 (Streptococcus pneumoniae 670-6B); experiment: cell_activity
T6 chain: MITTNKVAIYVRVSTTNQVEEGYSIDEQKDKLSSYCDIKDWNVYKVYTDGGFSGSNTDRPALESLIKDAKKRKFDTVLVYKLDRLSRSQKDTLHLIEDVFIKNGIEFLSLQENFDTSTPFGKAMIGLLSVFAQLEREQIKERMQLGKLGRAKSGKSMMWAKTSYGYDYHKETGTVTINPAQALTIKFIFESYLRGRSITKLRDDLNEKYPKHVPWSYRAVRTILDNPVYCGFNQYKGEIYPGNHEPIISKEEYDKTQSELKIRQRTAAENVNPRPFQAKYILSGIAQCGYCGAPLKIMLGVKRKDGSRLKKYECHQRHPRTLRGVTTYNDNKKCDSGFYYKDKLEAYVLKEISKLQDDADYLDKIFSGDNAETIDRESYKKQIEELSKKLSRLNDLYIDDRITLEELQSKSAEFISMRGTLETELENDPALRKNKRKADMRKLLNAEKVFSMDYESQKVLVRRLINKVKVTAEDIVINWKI

[7] = target: Int11 (Clostridium botulinum B str. Eklund 17B); experiment: cell_activity; attB x attP EGFP inversion reporter, HEK293FT

B1: Int8 attB (dsDNA)
DNA 1: CAATCATCAGATAACTATGGCGGCACGTGCATTAACCACGGTTGTATCCCGTCTAAAGTACTCGT
DNA 2: ACGAGTACTTTAGACGGGATACAACCGTGGTTAATGCACGTGCCGCCATAGTTATCTGATGATTG
- binding signal [1]: 0.068 fraction of Bxb1

B2: Int9 attP (dsDNA)
DNA 1: GTGGTTGTTTTTGTTGGAAGTGTGTATCAGGTATCTGCATAGTTATTCCGAACTTCCAATTA
DNA 2: TAATTGGAAGTTCGGAATAACTATGCAGATACCTGATACACACTTCCAACAAAAACAACCAC
- binding signal [2]: 0.08 fraction of Bxb1

B3: Int2 attP (dsDNA)
DNA 1: GCTCATGTATGTGTCTACGCGAGATTCTCGCCCGAGAACTTCTGCAAGGCACTGCTCTTGGCT
DNA 2: AGCCAAGAGCAGTGCCTTGCAGAAGTTCTCGGGCGAGAATCTCGCGTAGACACATACATGAGC
- binding signal [3]: 0.17 fraction of Bxb1

B4: Int12 attB (dsDNA)
DNA 1: GTTCGTGGTAACTATGGGTGGTACAGGTGCCACATTAGTTGTACCATTTATGTTTATGTGGTTAAC
DNA 2: GTTAACCACATAAACATAAATGGTACAACTAATGTGGCACCTGTACCACCCATAGTTACCACGAAC
- binding signal [4]: 0.821 fraction of Bxb1

B5: Int3 attB (dsDNA)
DNA 1: GTTTGTAAAGGAGACTGATAATGGCATGTACAACTATACTCGTCGGTAAAAAGGCATCTTAT
DNA 2: ATAAGATGCCTTTTTACCGACGAGTATAGTTGTACATGCCATTATCAGTCTCCTTTACAAAC
- binding signal [5]: 1.11 fraction of Bxb1

B6: Int2 attB (dsDNA)
DNA 1: GGACGGCGCAGAAGGGGAGTAGCTCTTCGCCGGACCGTCGACATACTGCTCAGCTCGTC
DNA 2: GACGAGCTGAGCAGTATGTCGACGGTCCGGCGAAGAGCTACTCCCCTTCTGCGCCGTCC
- binding signal [3]: 0.17 fraction of Bxb1

B7: Int10 attP (dsDNA)
DNA 1: GGAAAATATAAATAATTTTAGTAACCTACATCTCAATCAAGGATAGTAAAACTCTCACTCTT
DNA 2: AAGAGTGAGAGTTTTACTATCCTTGATTGAGATGTAGGTTACTAAAATTATTTATATTTTCC
- binding signal [6]: 5.49 fraction of Bxb1

B8: Int11 attB (dsDNA)
DNA 1: ATGGATTTTGCAGATTCCCAGATGCCCCTACAGAAAGAGGTACAAAACATTTATTGGAATTAATT
DNA 2: AATTAATTCCAATAAATGTTTTGTACCTCTTTCTGTAGGGGCATCTGGGAATCTGCAAAATCCAT
- binding signal [7]: 1.81 fraction of Bxb1

B9: Int3 attP (dsDNA)
DNA 1: ATGGATAAAAAAATACAGCGTTTTTCATGTACAACTATACTAGTTGTAGTGCCTAAATAATGCTT
DNA 2: AAGCATTATTTAGGCACTACAACTAGTATAGTTGTACATGAAAAACGCTGTATTTTTTTATCCAT
- binding signal [5]: 1.11 fraction of Bxb1

B10: Int10 attB (dsDNA)
DNA 1: AGCACGCTGATAATCAGCAAGACCACCAACATTTCCACCAATGTAAAAGCTTTAACCTTAGC
DNA 2: GCTAAGGTTAAAGCTTTTACATTGGTGGAAATGTTGGTGGTCTTGCTGATTATCAGCGTGCT
- binding signal [6]: 5.49 fraction of Bxb1

B11: Int12 attP (dsDNA)
DNA 1: TTTTTGTATGTTAGTTGTGTCACTGGGTAGACCTAAATAGTGACACAACTGCTATTAAAATTTAA
DNA 2: TTAAATTTTAATAGCAGTTGTGTCACTATTTAGGTCTACCCAGTGACACAACTAACATACAAAAA
- binding signal [4]: 0.821 fraction of Bxb1

B12: Int8 attP (dsDNA)
DNA 1: TTAATAAACTATGGAAGTATGTACAGTCTTGCAATGTTGAGTGAACAAACTTCCATAATAAAAT
DNA 2: ATTTTATTATGGAAGTTTGTTCACTCAACATTGCAAGACTGTACATACTTCCATAGTTTATTAA
- binding signal [1]: 0.068 fraction of Bxb1

B13: Int11 attP (dsDNA)
DNA 1: GTTTATATGTTTACTAATAAGACGCTCTCAACCCATAAAGTCTTATTAGTAAACATATTTCAACT
DNA 2: AGTTGAAATATGTTTACTAATAAGACTTTATGGGTTGAGAGCGTCTTATTAGTAAACATATAAAC
- binding signal [7]: 1.81 fraction of Bxb1

B14: Int9 attB (dsDNA)
DNA 1: TTTATATTGCGAAAAATAATTGGCGAACGAGGTAACTGGATACCTCATCCGCCAATTAAAATTTG
DNA 2: CAAATTTTAATTGGCGGATGAGGTATCCAGTTACCTCGTTCGCCAATTATTTTTCGCAATATAAA
- binding signal [2]: 0.08 fraction of Bxb1
